Like-named read-outs stand apart in the source and are kept apart here.
B1: T-C mismatch template:primer (dsDNA)
DNA 1: AATACATAATCGCTCCAGGCAAT
DNA 2: GCCTGGAGCGC
modifications: primer 3'-terminal dideoxycytidine
B2: A-C mismatch template:primer (dsDNA)
DNA 1: AATACATAAACGCTCCAGGCAAT
DNA 2: GCCTGGAGCGC
modifications: primer 3'-terminal dideoxycytidine
B3: C-C mismatch template:primer (dsDNA)
DNA 1: AATACATAACCGCTCCAGGCAAT
DNA 2: GCCTGGAGCGC
modifications: primer 3'-terminal dideoxycytidine
B4: G-C template:primer (matched) (dsDNA)
DNA 1: AATACATAAGCGCTCCAGGCAAT
DNA 2: GCCTGGAGCGC
modifications: primer 3'-terminal dideoxycytidine
B5: T-C mismatch DNA template:RNA primer (crystal) (DNA:RNA)
DNA: ATAGTCGCTCCAGGC
RNA: GCCUGGAGCGC
modifications: RNA primer with 3'-terminal dideoxycytidine

What was measured:
[1] = molecular target: T1, DNA polymerase alpha catalytic domain (PolαCD) (human, UniProt P09884 338-1250); assay: BLI
T1 sequence (P09884 338-1250): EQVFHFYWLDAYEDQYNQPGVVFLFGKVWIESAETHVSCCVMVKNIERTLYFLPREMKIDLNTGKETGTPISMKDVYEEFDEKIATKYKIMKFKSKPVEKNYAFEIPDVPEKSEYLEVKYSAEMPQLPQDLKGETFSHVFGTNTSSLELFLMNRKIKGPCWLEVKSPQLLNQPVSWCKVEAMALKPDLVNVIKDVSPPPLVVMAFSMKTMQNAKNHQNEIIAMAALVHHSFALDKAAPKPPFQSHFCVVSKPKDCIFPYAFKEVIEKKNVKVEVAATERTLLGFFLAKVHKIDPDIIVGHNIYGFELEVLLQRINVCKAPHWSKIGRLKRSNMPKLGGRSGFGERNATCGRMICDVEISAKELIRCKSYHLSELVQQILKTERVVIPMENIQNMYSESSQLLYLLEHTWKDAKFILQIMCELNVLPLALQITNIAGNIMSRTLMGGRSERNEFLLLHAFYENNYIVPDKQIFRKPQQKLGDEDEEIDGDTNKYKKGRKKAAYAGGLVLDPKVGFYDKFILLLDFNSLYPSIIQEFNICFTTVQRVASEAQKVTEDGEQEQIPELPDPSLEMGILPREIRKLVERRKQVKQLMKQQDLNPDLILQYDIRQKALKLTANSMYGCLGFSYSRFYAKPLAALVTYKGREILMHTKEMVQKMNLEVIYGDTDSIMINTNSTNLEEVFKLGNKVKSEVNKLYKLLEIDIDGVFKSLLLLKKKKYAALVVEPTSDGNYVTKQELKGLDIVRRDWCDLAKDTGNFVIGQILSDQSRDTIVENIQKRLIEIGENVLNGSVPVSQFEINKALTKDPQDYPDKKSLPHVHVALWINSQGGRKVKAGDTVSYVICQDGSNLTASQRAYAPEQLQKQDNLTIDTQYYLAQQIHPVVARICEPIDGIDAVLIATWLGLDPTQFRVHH

[2] = molecular target: T1, DNA polymerase alpha catalytic domain …; assay: BLI; remark: listed apart in the source
[3] = molecular target: T1, DNA polymerase alpha catalytic domain …; assay: BLI; remark: listed apart in the source
[4] = molecular target: T1, DNA polymerase alpha catalytic domain …; assay: BLI; remark: listed apart in the source
[5] = molecular target: T1, DNA polymerase alpha catalytic domain …; assay: BLI; remark: listed apart in the source
[6] = molecular target: T1, DNA polymerase alpha catalytic domain …; assay: crystal structure

Row | Binder | Kd [1] | Kd [2] | Kd [3] | Kd [4] | Kd [5] | binding result [6]
1 | B1 | 14.2 ± 0.13 nM | 462 ± 43 nM | – | – | – | –
2 | B2 | 12.6 ± 1.3 nM | 987 ± 18 nM | – | – | – | –
3 | B3 | 11.7 ± 0.42 nM | 646 ± 11 nM | – | – | – | –
4 | B4 | 40.8 ± 1.6 nM | 1400 ± 130 nM | 168 ± 17 nM | 30.2 ± 1.3 nM | 1200 nM | –
5 | B5 | – | – | – | – | – | binds

Reference: paper PMC9169922
